Values of other authors, collected in publication PMC8403128.
Like-named read-outs stand apart in the source and are kept apart here.

How the values were obtained:
[1] = target: Low-density lipoprotein receptor-related protein 1 (Homo sapiens) (UniProt Q07954)
[2] = target: Low-density lipoprotein receptor-related protein 1 (Homo sapiens) (UniProt Q07954); remark: listed apart in the source

Sequence of UniProt Q07954 (Q07954 4441-4544): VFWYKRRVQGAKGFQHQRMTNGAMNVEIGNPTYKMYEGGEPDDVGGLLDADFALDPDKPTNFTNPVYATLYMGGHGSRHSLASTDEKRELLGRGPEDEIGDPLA

| Kd [1] [nM] | Kd [2] [nM] | Substance |
| --- | --- | --- |
| > 1000 |  | Matrix metalloproteinase-1 (from UniProt P03956) |
|  | > 1000 | Matrix metalloproteinase-3 (from UniProt P08254) |
